# Results from patent US5770577.
# Biological target: trkB
row,Substance,Activ. in vitro (MTS tetrazolium uptake by PC12/pcDneo-trkB#18 cells)
1,monoMPEG(6 kDa)-BDNF conjugate with site of attachment at the N-terminal alpha-amino group(s) (Example 1) (ligand),101%
2,monoMPEG(20 kDa)-BDNF conjugate with site of attachment at the N-terminal alpha-amino group(s) (Example 2) (ligand),73%
3,"polyMPEG(6 kDa)-BDNF conjugates with MPEG aldehydes, six-fold molar excess (Example 4) (ligand)",25%
4,r-metHuBDNF (ligand),100%
